Results from US20220389085A1 (BIONOXX, published 2022).

T1: protein A56 of the oncolytic virus OTS-412 (vaccinia virus (OTS-412), UniProt P08714 17-315)
T1 construct: also called OTS-412-A56; protein A56 variant
T1 chain: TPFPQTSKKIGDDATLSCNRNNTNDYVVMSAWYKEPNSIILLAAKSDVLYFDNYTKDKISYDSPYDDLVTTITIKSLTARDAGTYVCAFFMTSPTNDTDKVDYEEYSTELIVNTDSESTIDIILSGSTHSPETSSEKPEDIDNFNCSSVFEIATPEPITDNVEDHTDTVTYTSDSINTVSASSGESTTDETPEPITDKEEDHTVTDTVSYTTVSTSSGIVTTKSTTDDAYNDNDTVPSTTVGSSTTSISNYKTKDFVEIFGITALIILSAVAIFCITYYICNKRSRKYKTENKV


Tests used:
[1] = target: T2, protein A56 of the oncolytic virus WOTS-418 (vaccinia virus (WOTS-418, Western …, UniProt Q01218 17-314)); experiment: flow cytometry, PC3 cells treated with WOTS-418 (overlay, FIG. 75)
T2 construct: also called WOTS-418-A56; protein A56 variant

[2] = target: T2, protein A56 of the oncolytic virus …; experiment: flow cytometry, MCF7 cells treated with WOTS-418
[3] = target: T2, protein A56 of the oncolytic virus …; experiment: flow cytometry, A549 cells treated with WOTS-418
[4] = target: T1, protein A56 of the oncolytic virus …; experiment: flow cytometry, A549 cells treated with OTS-412
[5] = target: T1, protein A56 of the oncolytic virus …; experiment: flow cytometry, MCF7 cells treated with OTS-412
[6] = target: T1, protein A56 of the oncolytic virus …; experiment: flow cytometry, PC3 cells treated with OTS-412 (overlay, FIG. 74)
[7] = target: T2, protein A56 of the oncolytic virus …; experiment: flow cytometry, PC3 cells treated with WOTS-418
[8] = target: T1, protein A56 of the oncolytic virus …; experiment: flow cytometry, PC3 cells treated with OTS-412

Binder | binding signal (flow cytometry, %) [1] | binding signal (flow cytometry, %) [2] | binding signal (flow cytometry, %) [3] | binding signal (flow cytometry, %) [4] | binding signal (flow cytometry, %) [5] | binding signal (flow cytometry, %) [6] | binding signal (flow cytometry, %) [7] | binding signal (flow cytometry, %) [8]
A56-02B01 (Ab14) (antibody, V domains shown) VH: QVQLVQSGGGVVQPGRSLRLSCAASGFTFSNYGMHWVRQAPGKGLEWMAFIWFDGSNKFYADSVKGRFTVSRDNSKNTLFLQMNSLRAEDTAVYYCAKAAHLWGAFDIWGQGTMVTVSS VL: DIQMTQSPDTLSLSPGERATLSCRASQSVSSYLAWYQQKPGQAPRLLIYGASNRATGIPARFSGSGSGTDFALTIGRLEPEDFAVYYCQQYATSPLSFGGGTKVEIK | ≥ 60% | ≥ 80% | ≥ 90% | ≥ 90% | ≥ 80% | ≥ 60% |  | 
A56-01A02 (Ab01) (antibody, V domains shown) VH: QMQLVQSGAEVKKPGSSVKVSCKASGGTFSSYAISWVRQAPGQGLEWMGGIIPIFGTANYAQKFQGRVTMTRDTSTSTVYMELSSLKSEDTAVYYCARFVFGSGTYLDSWGQGTLVTVSS VL: not shown | ≥ 60% | ≥ 80% | ≥ 90% | ≥ 90% | ≥ 80% | ≥ 60% |  | 
A56-01F12 (Ab08) (antibody, V domains shown) VH: QVQLVESGGEVKKPGSSVKVSCKASGGSFSTYAISWVRQAPGQGLEWMGRIIPISDIRNYAQKFQGRVTLTADRATSTAYMELSSLRSEDTAVYYCAKGGRLLSTHFDYWGQGTLVTVSS VL: QLVLTQPPSVSAAPGQKVTISCSGSSSNIGNNYVSWYQQLPGTAPKLLIYDDDKRPSGIPDRFSGSKSGTSATLGITGLQTGDEADYYCGTWHSGLSAGVVFGGGTKLTVL | ≥ 60% | ≥ 80% | ≥ 90% | ≥ 90% | ≥ 80% | ≥ 60% |  | 
A56-02A02 (Ab13) (antibody, V domains shown) VH: QMQLVESGAEVKKTGSSVKVSCKASGDTLTYRFLHWVRQAPGQAPEWMGWITPFNDNTNYAQKFQDRVTITRDRSMSTAYMELSSLRSEDTAVYYCATGGGNNYYGMEVWGQGTPITVSS VL: SYELTQPLSLSVSPGQTASITCSGDKLGDKFTSWYQQQPGQSPVLVIYQDAKRPSGIPERFSGSNSGSTATLTISGTQSMDEADYYCQAWDSSSVVFGGGTKLTVL | ≥ 60% | ≥ 80% | ≥ 90% | ≥ 90% | ≥ 80% | ≥ 60% |  | 
A56-02C06 (Ab18) (antibody, V domains shown) VH: QVQLVESGGGLVQPGKSLRLSCAASGFTFSTYGMTWVRQAPGKGLEWVSGISGGGSSTNYADSVKGRFIISRDNSNNTLYLQMNSLRAEDTAVYYCARWGVMLSFDYWGQGTPVTVSS VL: DIQMTQSPSTLPASVGDRVTITCRASYSVSPWLAWYQQKPGKAPKLLIYKASTLESGVPSRFSGSGSGTEFTLTISSLQPDDFATYYCQQFNSYMMYTFGQGTKLEIK | ≥ 60% | ≥ 80% |  |  | ≥ 80% | ≥ 60% |  | 
LakePharma variant3 (antibody, also called LP variant3; LPvariant03) VH: QVQLQQSGPELVKPGASMKLSCKASGYSFTGYTMNWVKQSHGKNLEWIGLINPYNGGTSYNQKFKGKATLTVDKSSSTAYMELLSLTSEDSAVYYCARSHYRYDYWYFDVWGAGTTVTVSSAKTTPPSVYPLAPGSAAQTNSMVTLGCLVKGYFPEPVTVTWNSGSLSSGVHTFPAVLQSDLYTLSSSVTVPSSTWPSETVTCNVAHPASSTKVDKKIVPRDCGCKPCICTVPEVSSVFIFPPKPKDVLTITLTPKVTCVVVDISKDDPEVQFSWFVDDVEVHTAQTQPREEQFNSTFRSVSELPIMHQDWLNGKEFKCRVNSAAFPAPIEKTISKTKGRPKAPQVYTIPPPKEQMAKDKVSLTCMITDFFPEDITVEWQWNGQPAENYKNTQPIMDTDGSYFVYSKLNVQKSNWEAGNTFTCSVLHEGLHNHHTEKSLSHSPGK VL: DVVMTQTPLSLPVSLGDQASISCRSSQSLVHSNGNTYLHWYLQKPGQSPKLLIYKVSNRFSGVPDRFSGSGSGTDFTLKISRVEAEDLGVYFCSQSTHVPPFTFGSGTKLEIKRADAAPTVSIFPPSSEQLTSGGASVVCFLNNFYPKDINVKWKIDGSERQNGVLNSWTDQDSKDSTYSMSSTLTLTKDEYERHNSYTCEATHKTSTSPIVKSFNRNEC |  |  | ≥ 93% | ≥ 93% |  |  | ≥ 90% | ≥ 90%
LakePharma variant4 (antibody, also called LP variant4; LPvariant04) VH: EVQLQQSGPELVKPGASMKLSCKASGYSFTGYTMNWVKQSHGKNLEWIGLINPYNGGTSYNQKFKGKATLTVDKSSSTAYMELLSLTSEDSAVYYCARSHYRYDYWYFDVWGAGTTVTVSSAKTTPPSVYPLAPGSAAQTNSMVTLGCLVKGYFPEPVTVTWNSGSLSSGVHTFPAVLQSDLYTLSSSVTVPSSTWPSETVTCNVAHPASSTKVDKKIVPRDCGCKPCICTVPEVSSVFIFPPKPKDVLTITLTPKVTCVVVDISKDDPEVQFSWFVDDVEVHTAQTQPREEQFNSTFRSVSELPIMHQDWLNGKEFKCRVNSAAFPAPIEKTISKTKGRPKAPQVYTIPPPKEQMAKDKVSLTCMITDFFPEDITVEWQWNGQPAENYKNTQPIMDTDGSYFVYSKLNVQKSNWEAGNTFTCSVLHEGLHNHHTEKSLSHSPGK VL: DVVMTQTPLSLPVSLGDQASISCRSSQSLVHSNGNTYLHWYLQKPGQSPKLLIYKVSNRFSGVPDRFSGSGSGTDFTLKISRVEAEDLGVYFCSQSTHVPPFTFGSGTKLEIKRADAAPTVSIFPPSSEQLTSGGASVVCFLNNFYPKDINVKWKIDGSERQNGVLNSWTDQDSKDSTYSMSSTLTLTKDEYERHNSYTCEATHKTSTSPIVKSFNRNEC |  |  | ≥ 93% | ≥ 93% |  |  | ≥ 90% | ≥ 90%
A56-35G07 (Ab51) (antibody, V domains shown) VH: QMQLVQSGAEVRKPGSSVKVSCKASGDTFSSYAVSWVRQAPGLGLEWMGRTIPRLGATSYAQNFQGRVSITADKSTNTVYMELSGLRSEDTAVYYCARYIPLVRGVRQPRDDFEIWGPGTMITVSS VL: DIQMTQSPGTLSLSPGERATLSCRASQSVSSSYLAWYQQKPGQAPRLLIYGASSRATGIPDRFSGSGSGTDFTLTISSLEPEDFAVYYCQHRKSWPPGATFGQGTRLEIK | ≥ 60% | ≥ 80% | ≥ 90% | ≥ 90% | ≥ 80% | ≥ 60% |  | 
A56-02C07 (Ab19) (antibody, V domains shown) VH: QVQLVESGAEVRRPGSSVKVSCKTSGVTFSGYVLSWVRQAPGHGLEWMGRIIPLIDVENYAREFQGRMKITADKSTNTVYMELNNLRSEDTAVYYCAKSVVRGLDYYYYGFDVWGQGTTVTVSS VL: SYELTQPPSLSVAPGKTARITCGGNNIGSKSVHWYQQKPGQAPRLVTYYDGNRPSGIPERFSGSNSGNTATLIISRVEAGDEADYYCQVWDSSSDQGVFGTGTKVTVL | ≥ 60% | ≥ 80% | ≥ 90% | ≥ 90% | ≥ 80% | ≥ 60% |  | 
A56-01A04 (Ab03) (antibody, V domains shown) VH: QVQLVESGAEVKKPGSSVKVSCKASGGTFSYRYLHWVRQASGQALEWMGWITPFNGYTNYAQKFQDRVTITRDRSMSTAYMELSSLRSEDTAVYYCVTGLGKTNLDSWGQGTLVTVSS VL: DIVMTQTPLSSPVTLGQPASISCRSSQSLVHSNGNTYLSWLQQRPGQPPRLLIYQISKRFSGVPDRFSGSGAGTDFTLKISRVEAEDVGVYYCMQLTQFPLTFGGGTKVEIK | ≥ 60% | ≥ 80% | ≥ 90% | ≥ 90% | ≥ 80% | ≥ 60% |  | 
A56-44G01 (Ab55) (antibody, V domains shown) VH: QVQLVESGGGVVQPGRSLRLSCAASGFTFSSYAMHWVRQAPGKGLEWVAVISYDGSNKYYADSVKGRFTISRDNSKNTLYLQMNSLRAEDTAVYYCAKDLWGRVGALVGALDLWGQGTMITVSS VL: SYELTQGPSLSVSPGQTANIICSGDNLRTKYVSWYQQKPGQSPILVIYQDTRRPSGIPARFSGSNSGNTATLTISGTQAMDEADYYCQAWDSGNYVFGTGTKVTVL | ≥ 60% | ≥ 80% | ≥ 90% | ≥ 90% | ≥ 80% | ≥ 60% |  | 
